Experimental data published in article PMC10165143 (Computational and Structural Biotechnology Journal, 2023).
Where no end group is shown, it is not given here. [ ]: non-standard residue; d: D form. The star is where a group is joined. FITC = O=C1OC2(c3ccc(O)cc3Oc3cc(O)ccc32)c2ccc(NC(=S)*)cc21; pT = C[C@@H](OP(=O)(O)O)[C@H](N)C(=O)O

Experiments:
[1] = target: T1, Bmh2 (S. cerevisiae 14-3-3 isoform) (S. cerevisiae, UniProt P34730 1-273); experiment: fluorescence polarisation
T1 sequence (looked up): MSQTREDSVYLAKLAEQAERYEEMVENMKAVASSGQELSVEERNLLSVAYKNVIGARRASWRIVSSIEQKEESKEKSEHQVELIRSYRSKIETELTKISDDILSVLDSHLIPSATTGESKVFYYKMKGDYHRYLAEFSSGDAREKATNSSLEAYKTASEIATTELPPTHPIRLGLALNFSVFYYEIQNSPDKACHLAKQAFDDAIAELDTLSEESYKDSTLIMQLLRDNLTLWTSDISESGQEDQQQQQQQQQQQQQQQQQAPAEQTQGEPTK

[2] = target: T2, Bmh1 (S. cerevisiae 14-3-3 isoform) (S. cerevisiae, UniProt P29311 1-267); experiment: fluorescence polarisation
T2 sequence (looked up): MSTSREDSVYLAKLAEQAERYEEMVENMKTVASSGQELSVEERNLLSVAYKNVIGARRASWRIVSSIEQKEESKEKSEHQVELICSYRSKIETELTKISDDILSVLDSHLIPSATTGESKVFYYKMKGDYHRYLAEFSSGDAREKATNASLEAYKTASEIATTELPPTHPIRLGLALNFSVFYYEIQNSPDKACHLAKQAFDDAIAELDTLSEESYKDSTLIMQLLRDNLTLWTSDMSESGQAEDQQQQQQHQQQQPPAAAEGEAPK

{FITC}-RRCF[pT]LLFP [FITC-labeled synthetic Trk1 peptide (FITC-RRCFpTLLFP) with phosphorylated Thr900]
Kd [1]: 3.4 µM | Kd [2]: 4 µM
